This experiment deals with KSS-1::Strep (C. tropicalis). Put plainly: SEC-MALS. For orientation: In gel filtration, larger molecules generally elute earlier.

With SKR-1 (untagged) (natural protein), the stoichiometry N (as a rule, the number of molecules, sites or subunits per partner or assembly) turned out to be 1.
